Experimental data published in the supplement of paper PMC10724198.
± gives the standard deviation of the averaged measurements.

What follows are sequences tested on Saccharomyces cerevisiae (assay: protein stability index of tFT-peptide fusion (C-terminal peptide) (PSI (0-1 scale)); higher = more stable (slower turnover)). Conditions: genetic background: wild type; temperature: 30 C.
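Also: PSI is a weighted mean of sequencing reads over stability bins, variants kept only with over 10 reads, mCherry proximal and sfGFP distal, peptide attached via GGGS linker.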

Row | Sequence | protein stability index
1 | FFFFFIHFLCYF | 0.31 ± 0.035
2 | FFFFFLLFFLRV | 0.303 ± 0.04
3 | FFFFLVPVHCVI | 0.358 ± 0.02
4 | FFFFSVHLSFLD | 0.31 ± 0.013
5 | FFFLILFPLSYS | 0.49 ± 0.072
6 | FFFLVRLCRLCV | 0.292 ± 0.055
7 | FFIMFFDFWGYF | 0.447 ± 0.079
8 | FFLRFGLFLFTL | 0.421 ± 0.049
9 | FFSCFFFSVLYR | 0.377 ± 0.035
10 | FFVYRFFSLSVC | 0.07222 ± 0.00031
11 | FGCCLYFCFWGL | 0.433 ± 0.005
12 | FHLVIYWCVRGP | 0.428 ± 0.034
13 | FICYDRILTVYY | 0.454 ± 0.034
14 | FIVVSFCFFLFF | 0.343 ± 0.067
15 | FKFGVFDFRFLC | 0.109 ± 0.06
16 | FLFFLFVVFVFV | 0.41 ± 0.07
17 | FLFFRFLVGCCF | 0.3731 ± 0.003
18 | FLIFFVCLFRWK | 0.328 ± 0.0066
19 | FLLLDFMLVSLV | 0.483 ± 0.011
20 | FLLLVVYVSLYS | 0.216 ± 0.1
21 | FLLSFFGLVFFW | 0.397 ± 0.0048
22 | FLPLFFLPCLSV | 0.361 ± 0.022
23 | FLSPPPFLALLP | 0.723 ± 0.023
24 | FLSRHFLFLSFV | 0.409 ± 0.016
25 | FPFHSRPCLPVL | 0.518 ± 0.056
26 | FPTLVRKFINAI | 0.13 ± 0.0092

Row | Sequence | protein stability index
27 | FRRSFPFPLFLR | 0.232 ± 0.12
28 | FSCRRISFFLLV | 0.182 ± 0.05
29 | FSPLVCLLFFLF | 0.3938 ± 0.00098
30 | FSRFPFVKLSLV | 0.297 ± 0.016
31 | FSSWPFFSFYLS | 0.518 ± 0.036
32 | FSVRLCLFVWGC | 0.436 ± 0.1
33 | FSYFFIFFYMVC | 0.238 ± 0.0085
34 | FVGVVCILWLVG | 0.356 ± 0.011
35 | FVLFSIFHFFLW | 0.382 ± 0.027
36 | FVLSLGQLVFIF | 0.445 ± 0.016
37 | FVSAFVCLLCLV | 0.4919 ± 0.004
38 | FVSFTVSFSVVV | 0.379 ± 0.032
39 | FVVIFRFSRFSA | 0.39 ± 0.0004
40 | FWYIRIRLAVVA | 0.0536 ± 0.019
41 | FYIWFFRLIYFF | 0.408 ± 0.014
42 | FYTYILTVAEAL | 0.482 ± 0.015
43 | GALVVSWAEVLC | 0.503 ± 0.012
44 | GCLSFVAAVHLH | 0.4325 ± 0.0028
45 | GCRLRHRLVRIV | 0.2105 ± 0.0013
46 | GESCGGSERRVG | 0.643 ± 0.3
47 | GFGRDHGNDTGP | 0.721 ± 0.0055
48 | GFRVPVVVGVRG | 0.432 ± 0.0044
49 | GFSSRWLMQYMV | 0.369 ± 0.0081
50 | GGGGGGGGGGVG | 0.514 ± 0.045
51 | GGGVGVAVVLFW | 0.417 ± 0.016
52 | GGGVWWGVLVLG | 0.46142 ± 8.8e-05

Row | Sequence | protein stability index
53 | GGGWAVLLWVQV | 0.406 ± 0.022
54 | GGVVGGVGVYDG | 0.707 ± 0.019
55 | GGWGVFGVWVWM | 0.324 ± 0.0082
56 | GGYVTVTSVTVV | 0.468 ± 0.039
57 | GHYQGVCHRRIC | 0.34 ± 0.015
58 | GIISMYVARRLG | 0.285 ± 0.019
59 | GKVGGRMWVWRV | 0.257 ± 0.0031
60 | GLGVIFFLLGYG | 0.429 ± 0.015
61 | GLLFWSGVVSWV | 0.4 ± 0.0088
62 | GLLVFRCINLRC | 0.357 ± 0.038
63 | GLPGYAWGRSGG | 0.586 ± 0.22
64 | GLSLVCWIVVLG | 0.306 ± 0.014
65 | GLVVMFVIAGGG | 0.404 ± 0.015
66 | GMGRVLVEVLLC | 0.165 ± 0.029
67 | GMLIYVIGGLSH | 0.508 ± 0.06
68 | GMMLLRFIIRWY | 0.173 ± 0.045
69 | GPFVRSALIFIF | 0.407 ± 0.018
70 | GRAVGLANFTIK | 0.129 ± 0.012
71 | GRCGGPRSLGVG | 0.547 ± 0.07
72 | GSGCLFNRWRIL | 0.287 ± 0.045
73 | GSLLWSGWSTCY | 0.761 ± 0.043
74 | GSWGGGWRYVGW | 0.734 ± 0.033
75 | GTSDLIALLMLT | 0.509 ± 0.083
76 | GTWCLAMARFCA | 0.4775 ± 0.0038
77 | GVFVVVGEASVH | 0.421 ± 0.023
78 | GVFVWVVFVCTM | 0.268 ± 0.053

Each sequence was assayed on Saccharomyces cerevisiae in the same assay as above. Conditions: genetic background: cdc34-1; temperature: 37 C.
Protocol: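 MPS profiling in S. cerevisiae of the tFT-X12 degron library: putative degron peptides plus stable controls, 12 aa, fused to the C-terminus of a sfGFP-mCherry timer. Cells are FACS-sorted into 8 mCherry/sfGFP bins and deep-sequenced. PSI runs from 0 (unstable) to 1 (stable). Backgrounds are wild type, das1Δ and doa10Δ at 30 °C, and wild type, das1Δ, cdc34-1 and cdc53-1 at 37 °C; 2-3 technical replicates each.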

Row | Sequence | protein stability index
79 | FFFFFIHFLCYF | 0.239 ± 0.019
80 | FFFFFLLFFLRV | 0.229 ± 0.027
81 | FFFFLVPVHCVI | 0.261 ± 0.029
82 | FFFFSVHLSFLD | 0.122 ± 0.0052
83 | FFFLILFPLSYS | 0.4518 ± 0.0042
84 | FFFLVRLCRLCV | 0.478 ± 0.043
85 | FFIMFFDFWGYF | 0.378 ± 0.01
86 | FFLRFGLFLFTL | 0.491 ± 0.0061
87 | FFSCFFFSVLYR | 0.2699 ± 0.00059
88 | FFVYRFFSLSVC | 0.146 ± 0.0021
89 | FGCCLYFCFWGL | 0.455 ± 0.0063
90 | FHLVIYWCVRGP | 0.337 ± 0.013
91 | FICYDRILTVYY | 0.479 ± 0.0097
92 | FIVVSFCFFLFF | 0.331 ± 0.06
93 | FKFGVFDFRFLC | 0.451 ± 0.063
94 | FLFFLFVVFVFV | 0.256 ± 0.041
95 | FLFFRFLVGCCF | 0.406 ± 0.0083
96 | FLIFFVCLFRWK | 0.185 ± 0.0059
97 | FLLLDFMLVSLV | 0.498 ± 0.015
98 | FLLLVVYVSLYS | 0.143 ± 0.0068
99 | FLLSFFGLVFFW | 0.39 ± 0.029
100 | FLPLFFLPCLSV | 0.363 ± 0.0091
101 | FLSPPPFLALLP | 0.7 ± 0.03
102 | FLSRHFLFLSFV | 0.467 ± 0.036
103 | FPFHSRPCLPVL | 0.567 ± 0.0099
104 | FPTLVRKFINAI | 0.448 ± 0.024

Row | Sequence | protein stability index
105 | FRRSFPFPLFLR | 0.105 ± 0.014
106 | FSCRRISFFLLV | 0.525 ± 0.014
107 | FSPLVCLLFFLF | 0.492 ± 0.031
108 | FSRFPFVKLSLV | 0.642 ± 0.059
109 | FSSWPFFSFYLS | 0.681 ± 0.032
110 | FSVRLCLFVWGC | 0.399 ± 0.036
111 | FSYFFIFFYMVC | 0.207 ± 0.029
112 | FVGVVCILWLVG | 0.177 ± 0.0044
113 | FVLFSIFHFFLW | 0.424 ± 0.084
114 | FVLSLGQLVFIF | 0.552 ± 0.03
115 | FVSAFVCLLCLV | 0.58 ± 0.041
116 | FVSFTVSFSVVV | 0.296 ± 0.018
117 | FVVIFRFSRFSA | 0.419 ± 0.12
118 | FWYIRIRLAVVA | 0.0797 ± 0.027
119 | FYIWFFRLIYFF | 0.421 ± 0.043
120 | FYTYILTVAEAL | 0.518 ± 0.041
121 | GALVVSWAEVLC | 0.5163 ± 0.0026
122 | GCLSFVAAVHLH | 0.624 ± 0.026
123 | GCRLRHRLVRIV | 0.517 ± 0.038
124 | GESCGGSERRVG | 0.69 ± 0.019
125 | GFGRDHGNDTGP | 0.712 ± 0.017
126 | GFRVPVVVGVRG | 0.449 ± 0.023
127 | GFSSRWLMQYMV | 0.585 ± 0.05
128 | GGGGGGGGGGVG | 0.313 ± 0.019
129 | GGGVGVAVVLFW | 0.432 ± 0.024
130 | GGGVWWGVLVLG | 0.37 ± 0.028

Row | Sequence | protein stability index
131 | GGGWAVLLWVQV | 0.387 ± 0.019
132 | GGVVGGVGVYDG | 0.702 ± 0.012
133 | GGWGVFGVWVWM | 0.476 ± 0.051
134 | GGYVTVTSVTVV | 0.587 ± 0.051
135 | GHYQGVCHRRIC | 0.657 ± 0.026
136 | GIISMYVARRLG | 0.594 ± 0.037
137 | GKVGGRMWVWRV | 0.592 ± 0.041
138 | GLGVIFFLLGYG | 0.469 ± 0.028
139 | GLLFWSGVVSWV | 0.2627 ± 0.0023
140 | GLLVFRCINLRC | 0.449 ± 0.013
141 | GLPGYAWGRSGG | 0.6759 ± 0.0045
142 | GLSLVCWIVVLG | 0.153 ± 0.033
143 | GLVVMFVIAGGG | 0.405 ± 0.0067
144 | GMGRVLVEVLLC | 0.293 ± 0.0086
145 | GMLIYVIGGLSH | 0.652 ± 0.016
146 | GMMLLRFIIRWY | 0.0773 ± 0.026
147 | GPFVRSALIFIF | 0.535 ± 0.04
148 | GRAVGLANFTIK | 0.659 ± 0.02
149 | GRCGGPRSLGVG | 0.562 ± 0.036
150 | GSGCLFNRWRIL | 0.6956 ± 0.0048
151 | GSLLWSGWSTCY | 0.768 ± 0.018
152 | GSWGGGWRYVGW | 0.761 ± 0.037
153 | GTSDLIALLMLT | 0.688 ± 0.047
154 | GTWCLAMARFCA | 0.615 ± 0.056
155 | GVFVVVGEASVH | 0.546 ± 0.0025
156 | GVFVWVVFVCTM | 0.145 ± 0.015
